Where two headings read alike, the source gives them in different places.
Columns and labels:
[1] = biological target: wild-type RSV B F (RSV B); experiment: flow cytometry, Expi293F cells, Lipofectamine 2000-mRNA; row WT-RQ3
003m-P215S-2×GCN4t (RSV) = experiment: flow cytometry, Expi293F cells, Lipofectamine 2000-mRNA
003M-P215S-L-3N (RSV) = experiment: as above
003m-P215S-S-3N = experiment: as above
003M-P215S-L (RSV) = experiment: as above
003M-P215S-S (RSV) = experiment: as above
003m-P215S (RSV) = experiment: as above
DS-Cav1 (RSV) [2] = experiment: flow cytometry, Expi293F cells transfected with the antigen's mRNA
DS-Cav1-1×GCN4t (RSV) = experiment: as above
DS-Cav1-2×GCN4t (RSV) = experiment: as above
003m-1×GCN4t (RSV) = experiment: as above
003m-2×GCN4t (RSV) = experiment: as above
[3] = biological target: wild-type RSV B F (RSV B); experiment: flow cytometry, Expi293F cells, Lipofectamine 2000-mRNA; row WT-RQ2
DS-Cav1 (RSV) [4] = experiment: flow cytometry, Expi293F cells transfected with the antigen's mRNA; remark: listed apart in the source
010m-Cys-ΔCys (RSV) = experiment: as above
010m-DS (RSV) = experiment: as above
008m-Cys-ΔCys (RSV) = experiment: as above
008m-DS (RSV) = experiment: as above
009m-Cys-ΔCys (RSV) = experiment: as above
003m-ΔCys (RSV) = experiment: as above
010m-Cys (RSV) = experiment: as above
007m-Cys (RSV) = experiment: as above
008m-Cys (RSV) = experiment: as above
003m-P215S-1×GCN4t-1,3N = experiment: flow cytometry, Expi293F cells, Lipofectamine 2000-mRNA
003m-P215S-1×GCN4t-1N = experiment: as above
003m-P215S-1×GCN4t-1,2N = experiment: as above
003m-P215S-1×GCN4t-3N = experiment: as above
003m-P215S-1×GCN4t-2,3N = experiment: as above
[5] = biological target: 003m-P215S-1×GCN4t-1,2,3N; experiment: as above
[6] = biological target: 003m-P215S-1×Fibritin-1N (RSV); experiment: as above
003m-P215S-1×GCN4t (RSV) = experiment: as above
RSV B-003m-P215S (RSV B) = experiment: flow cytometry, Expi293F cells, Lipofectamine 2000-mRNA; mRNA RQ1
[7] = biological target: RSV B-003m-P215S-1×GCN4t-C155S-C290S (RSV B); experiment: as above
[8] = biological target: RSV B-003m-P215S-1×GCN4t-G46S (RSV B); experiment: as above
[9] = biological target: RSV B-003m-P215S-1×GCN4t-ori_linker (RSV B); experiment: as above
[10] = biological target: RSV B-003m-P215S-1×GCN4t (RSV B); experiment: as above
[11] = biological target: RSV B-003m-P215S-1×GCN4t-D92E (RSV B); experiment: as above
[12] = biological target: RSV B-003m-P215S-1×GCN4t-C486D-C489D (RSV B); experiment: as above
[13] = biological target: RSV B-003m-P215S-1×GCN4t-C102A-C362S (RSV B); experiment: as above
[14] = biological target: RSV B-003m-P215S-1×GCN4t-F190S (RSV B); experiment: as above
[15] = biological target: 003m-P215S-ΔF111-1×GCN4t (RSV); experiment: flow cytometry, Expi293F cells, mRNA-LNP (RL151); row 003m-P215S-ΔF111-1×GCN4t

D25-AF488 (antibody) gave an MFI [1] of 36900, an MFI (003m-P215S-2×GCN4t (RSV)) of 2150 and an MFI (003M-P215S-L-3N (RSV)) of 23400. It also gave an MFI (003m-P215S-S-3N) of 48800, an MFI (003M-P215S-L (RSV)) of 5820 and an MFI (003M-P215S-S (RSV)) of 8920. The MFI (003m-P215S (RSV)) was 77200, the MFI (DS-Cav1 (RSV) [2]) was 145000 and the MFI (DS-Cav1-1×GCN4t (RSV)) was 1790. The MFI (DS-Cav1-2×GCN4t (RSV)) was 1170, the MFI (003m-1×GCN4t (RSV)) was 12100 and the MFI (003m-2×GCN4t (RSV)) was 173000. The MFI [3] was 138000, the MFI (DS-Cav1 (RSV) [4]) was 159000 and the MFI (010m-Cys-ΔCys (RSV)) was 136000. The MFI (010m-DS (RSV)) was 118000, the MFI (008m-Cys-ΔCys (RSV)) was 173000 and the MFI (008m-DS (RSV)) was 150000. For the same substance, the MFI (009m-Cys-ΔCys (RSV)) was 136000, the MFI (003m-ΔCys (RSV)) was 16200 and the MFI (010m-Cys (RSV)) was 252000. For the same substance, the MFI (007m-Cys (RSV)) was 229000, the MFI (008m-Cys (RSV)) was 196000 and the MFI (003m-P215S-1×GCN4t-1,3N) was 122000. For the same substance, the MFI (003m-P215S-1×GCN4t-1N) was 59400, the MFI (003m-P215S-1×GCN4t-1,2N) was 100000 and the MFI (003m-P215S-1×GCN4t-3N) was 43400. It also gave an MFI (003m-P215S-1×GCN4t-2,3N) of 70700, an MFI [5] of 147000 and an MFI [6] of 235000. For the same substance, the MFI (003m-P215S-1×GCN4t (RSV)) was 10400, the MFI (RSV B-003m-P215S (RSV B)) was 364000 and the MFI [7] was 94600. For the same substance, the MFI [8] was 4570, the MFI [9] was 480 and the MFI [10] was 8770. It also gave an MFI [11] of 2250, an MFI [12] of 8170 and an MFI [13] of 13900. It also gave an MFI [14] of 13500 and an MFI [15] of 682.

Work on AM14-AF488 (antibody) yielded an MFI [1] of 55800, an MFI (003m-P215S-2×GCN4t (RSV)) of 1890 and an MFI (003M-P215S-L-3N (RSV)) of 17500. The MFI (003m-P215S-S-3N) was 42400, the MFI (003M-P215S-L (RSV)) was 4540 and the MFI (003M-P215S-S (RSV)) was 5620. The MFI (003m-P215S (RSV)) was 90100, the MFI (DS-Cav1 (RSV) [2]) was 108000 and the MFI (DS-Cav1-1×GCN4t (RSV)) was 923. For the same substance, the MFI (DS-Cav1-2×GCN4t (RSV)) was 437, the MFI (003m-1×GCN4t (RSV)) was 6550 and the MFI (003m-2×GCN4t (RSV)) was 434000. For the same substance, the MFI [3] was 206000, the MFI (DS-Cav1 (RSV) [4]) was 122000 and the MFI (010m-Cys-ΔCys (RSV)) was 153000. It also gave an MFI (010m-DS (RSV)) of 107000, an MFI (008m-Cys-ΔCys (RSV)) of 181000 and an MFI (008m-DS (RSV)) of 139000. The MFI (009m-Cys-ΔCys (RSV)) was 148000, the MFI (003m-ΔCys (RSV)) was 8380 and the MFI (010m-Cys (RSV)) was 333000. For the same substance, the MFI (007m-Cys (RSV)) was 610000, the MFI (008m-Cys (RSV)) was 258000 and the MFI (003m-P215S-1×GCN4t-1,3N) was 71000. For the same substance, the MFI (003m-P215S-1×GCN4t-1N) was 37400, the MFI (003m-P215S-1×GCN4t-1,2N) was 58400 and the MFI (003m-P215S-1×GCN4t-3N) was 25100. The MFI (003m-P215S-1×GCN4t-2,3N) was 39100, the MFI [5] was 89600 and the MFI [6] was 242000. For the same substance, the MFI (003m-P215S-1×GCN4t (RSV)) was 4870, the MFI (RSV B-003m-P215S (RSV B)) was 496000 and the MFI [7] was 48400. For the same substance, the MFI [8] was 4140, the MFI [9] was 175 and the MFI [10] was 7340. For the same substance, the MFI [11] was 763, the MFI [12] was 8130 and the MFI [13] was 3640. For the same substance, the MFI [14] was 11100 and the MFI [15] was 821.

Source: patent publication EP4814000A1
